{"source": "patent US20240010701A1", "about": "(ALX ONCOLOGY, published 2024)", "binders": {"B1": {"name": "DRUG B (enfortumab similar antibody that specifically binds human nectin-4) (antibody, human IgG1, kappa)", "heavy": "not shown", "light": "DIQMTQSPSSVSASVGDRVTITCRASQGISGWLAWYQQKPGKAPKFLIYAASTLQSGVPSRFSGSGSGTDFTLTISSLQPEDFATYYCQQANSFPPTFGGGTKVEIKRTVAAPSVFIFPPSDEQLKSGTASVVCLLNNFYPREAKVQWKVDNALQSGNSQESVTEQDSKDSTYSLSSTLTLSKADYEKHKVYACEVTHQGLSSPVTKSFNRGEC", "notes": "Expressed in Expi293F cells, about 99% monomer; also called enfortumab similar Ab; Enfortumab similar mAb"}, "B2": {"name": "DRUG C (enfortumab vedotin similar antibody-drug conjugate) (antibody, human IgG1, kappa)", "heavy": "not shown", "light": "B1 light", "modifications": "MC-Val-Cit-PAB-MMAE linker-payload conjugated via interchain cysteines of the antibody; average drug-to-antibody ratio 3.85:1", "notes": "DRUG B conjugated to MC-Val-Cit-PAB-MMAE; also called enfortumab vedotin similar ADC; copies: 2 + 2"}}, "key": {"hFcRn ECD protein [1]": {"molecular_target": "T1, hFcRn ECD protein (human, UniProt P55899 24-297; P61769 21-119)", "T1 construct": "extracellular domain; also called human FcRn; neonatal Fc receptor", "T1 sequence (P55899 24-297 limits assumed, chain 1 of 2)": "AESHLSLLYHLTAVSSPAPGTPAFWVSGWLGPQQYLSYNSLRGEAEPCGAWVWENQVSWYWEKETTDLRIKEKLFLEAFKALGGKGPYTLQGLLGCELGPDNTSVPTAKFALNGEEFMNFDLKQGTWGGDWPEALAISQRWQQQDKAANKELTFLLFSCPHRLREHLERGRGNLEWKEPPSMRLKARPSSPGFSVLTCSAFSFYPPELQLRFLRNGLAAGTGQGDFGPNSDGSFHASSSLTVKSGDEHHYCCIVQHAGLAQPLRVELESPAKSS", "T1 sequence (P61769 21-119 limits assumed, chain 2 of 2)": "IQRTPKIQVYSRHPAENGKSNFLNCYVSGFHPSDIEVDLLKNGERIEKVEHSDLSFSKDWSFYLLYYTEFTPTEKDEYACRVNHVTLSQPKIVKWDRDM", "assay": "SPR (Biacore 8K), 25° C, PBS pH 5.8, antibody captured on nectin-4-coated chip, hFcRn ECD as analyte, steady-state analysis", "method": "(§1) All experiments were performed at 25° C. using a Biacore 8K equipped with S-type sensor chips and the kinetics data analyses were done using the Biacore Insight Evaluation Software. The running buffer was PBS pH 5.8 with 0.01% Tween-20 for hFcRn interactions and the running buffer for capture was HBS-EP+. Analyte hFcRn ECD protein was used at its nominal concentrations. A “single cycle kinetics” injection mode was used.\n(§2) The interactions of DRUG B and DRUG C with hFcRn were analyzed by flowing the hFcRn ECD protein over DRUG B or DRUG C captured on a nectin-4-coated CMS chip. Up to 2400 RU of human nectin-4 ECD were immobilized on both flow cells (1 and 2) of a CMS chip using amine chemistry following Cytiva amine coupling kit instructions. DRUG B or DRUG C were captured on flow cell 2 of each channel for 120 seconds at 10 μL/min at […] in HBS-EP+(100-200 RUs) in a surface preparation method. The hFcRn run was done in PBS pH 5.8 with 0.01% Tween-20. […] Association and dissociation times were monitored for 120s and 600s, respectively. […]\n(§3) The data was processed and analyzed with Biacore 8K Evaluation Software Version 3.0.12.15655 (Cytiva, Global Life Sciences Solutions USA LLC, Marlborough, MA). […] Binding affinity KD values were analyzed using a “steady state” (or “equilibrium binding”) method due to their fast on rates and fast off rates."}, "[2]": {"molecular_target": "T2, human Nectin-4 extracellular domain (ECD) with C-terminal His6 (human, UniProt Q96NY8 32-349)", "T2 construct": "also called human Nectin-4-ECD; human nectin-4 ECD", "T2 sequence": "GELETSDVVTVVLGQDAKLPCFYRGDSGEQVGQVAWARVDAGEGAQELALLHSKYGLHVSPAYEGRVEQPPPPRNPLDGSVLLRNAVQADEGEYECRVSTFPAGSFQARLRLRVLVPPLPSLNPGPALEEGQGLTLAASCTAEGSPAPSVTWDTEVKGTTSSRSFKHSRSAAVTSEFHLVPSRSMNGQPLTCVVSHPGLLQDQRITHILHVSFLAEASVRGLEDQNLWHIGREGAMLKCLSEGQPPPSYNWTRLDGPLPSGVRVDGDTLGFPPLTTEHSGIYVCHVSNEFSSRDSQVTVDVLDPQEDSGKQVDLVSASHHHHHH", "assay": "SPR (Biacore 8K), DRUG B captured on Protein A chip, nectin-4-ECD as analyte, single-cycle kinetics, 1:1 fit, 37° C; 37° C., human nectin-4-ECD", "method": "(§4) Kinetic injection method used was “single cycle kinetics” (also known as “kinetic titration”) (Karlsson et al. (2006) Analytical Biochemistry. 349(1):136-147).\n(§5) The interactions of DRUG B, i.e., an anti-Nectin-4 monoclonal antibody, with the extracellular domain (ECD) of human nectin-4 were analyzed by flowing nectin-4-ECD over DRUG B captured (200-400 RUs) on Biacore Series S Sensor Chip Protein A. DRUG B, at ˜1 μg/mL concentration was captured in flow cell 2 of each channel at flow rate 10 μL/min for 60 seconds (s) contact time while buffer was used for Flow cell 1 respectively. The human nectin-4-ECD analytes were prepared as a 5-membered 3-fold dilution series with top nominal concentration of 300 nM, and each analyte series was injected in order of ascending concentration using a single-cycle kinetics method. Association and dissociation times were monitored for 120s and 1800s, respectively, at 30 μL/min flow rate. The surfaces were regenerated with 75 mM phosphoric acid at pH 1.6 using two pulses of 15s at 30 μL/min flow rate.\n(§6) To analyze the data, the following processing steps were applied. Reference responses from flow cell 1 (reference surface) were subtracted from the active responses from flow cell 2 (reaction surface) to obtain the subtracted data (2-1). […]"}, "hFcγIIa-H131 [3]": {"molecular_target": "T3, hFcγIIa-H131 (human, UniProt P12318 34-217)", "T3 construct": "extracellular domain; H at position 131 of the H/R131 polymorphism; also called hFcγRIIa (CD32a) H131", "T3 sequence (looked up)": "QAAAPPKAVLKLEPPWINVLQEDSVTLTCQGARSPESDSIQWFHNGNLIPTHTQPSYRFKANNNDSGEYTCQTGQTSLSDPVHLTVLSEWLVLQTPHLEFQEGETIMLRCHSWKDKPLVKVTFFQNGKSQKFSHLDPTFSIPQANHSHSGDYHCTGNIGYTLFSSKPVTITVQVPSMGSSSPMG", "assay": "SPR (Biacore 8K), 25° C, antibody captured on nectin-4-coated chip, receptor ECD as analyte, steady-state analysis", "description": "(§7) The data was processed and analyzed with Biacore 8K Evaluation Software Version 3.0.12.15655 (Cytiva, Global Life Sciences Solutions USA LLC, Marlborough, MA). Reference responses from flow cell 1 were subtracted from the active responses from flow cell 2 to obtain the subtracted data (2-1). The responses from the nearest buffer blank injection were then subtracted from the reference subtracted data (2-1) to yield double-referenced data. For hFcγRI, these double-reference data were fit to a simple 1:1 Langmuir binding model with mass transport to determine the apparent association (ka) and dissociation rate constants (kd). The apparent equilibrium dissociation constant or affinity constant was then calculated based on their ratio as (KD=kd/ka). Binding affinity KD values for all the other hFcγR interactions (hFcγIIa-H131, hFcγIIa-R131, hFcγIIIa, and FcγIIIaV158F) were analyzed using a “steady state” (or “equilibrium binding”) method due to their fast on rates and fast off rates."}, "hFcγIIa-R131 [4]": {"molecular_target": "T4, hFcγIIa-R131 (human, UniProt P12318 36-218)", "T4 construct": "extracellular domain; Position 131 is the customary mature-protein numbering, not the precursor numbering of the database entry; also called hFcγRIIa (CD32a) R131", "T4 sequence (looked up)": "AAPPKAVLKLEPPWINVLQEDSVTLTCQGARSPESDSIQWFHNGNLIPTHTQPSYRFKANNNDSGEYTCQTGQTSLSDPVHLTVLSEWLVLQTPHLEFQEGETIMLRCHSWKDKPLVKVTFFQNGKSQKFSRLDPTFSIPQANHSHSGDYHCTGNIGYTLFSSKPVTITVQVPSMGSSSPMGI", "assay": "SPR (Biacore 8K), 25° C, antibody captured on nectin-4-coated chip, receptor ECD as analyte, steady-state analysis", "description": "as §7"}, "hFcγIa [5]": {"molecular_target": "T5, hFcγIa (human, UniProt P12314 16-292)", "T5 construct": "extracellular domain; also called hFcγRI; CD64", "T5 sequence (P12314 16-292)": "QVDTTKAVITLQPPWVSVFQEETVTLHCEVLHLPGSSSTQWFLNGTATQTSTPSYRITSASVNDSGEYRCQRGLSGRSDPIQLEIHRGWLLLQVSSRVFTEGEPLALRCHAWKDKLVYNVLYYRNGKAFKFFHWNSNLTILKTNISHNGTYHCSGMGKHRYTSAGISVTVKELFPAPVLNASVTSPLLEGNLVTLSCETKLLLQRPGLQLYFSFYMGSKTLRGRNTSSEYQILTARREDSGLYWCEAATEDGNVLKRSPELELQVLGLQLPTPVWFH", "assay": "SPR (Biacore 8K), 25° C, antibody captured on nectin-4-coated chip, receptor ECD as analyte, single-cycle kinetics, 1:1 fit", "description": "as §7"}, "[6]": {"molecular_target": "T6, cynomolgus Nectin-4 extracellular domain (ECD) with C-terminal His6 (cynomolgus, UniProt Q96NY8 32-349 (human entry))", "T6 construct": "also called Cyno Nectin-4-ECD; cynomolgus nectin-4-ECD", "T6 chain": "T2 sequence with V39A, I230V", "assay": "SPR (Biacore 8K), DRUG B captured on Protein A chip, nectin-4-ECD as analyte, single-cycle kinetics, 1:1 fit, 25° C; 25° C., cynomolgus nectin-4-ECD"}, "[7]": {"molecular_target": "T2, human Nectin-4 extracellular domain …", "assay": "SPR (Biacore 8K), DRUG B captured on Protein A chip, nectin-4-ECD as analyte, single-cycle kinetics, 1:1 fit; temperature dropped in the text, 25° C by context; 25° C. (by context; temperature dropped in the text), human nectin-4-ECD", "method": "as §4, §5, §6"}, "[8]": {"molecular_target": "T6, cynomolgus Nectin-4 extracellular …", "assay": "SPR (Biacore 8K), DRUG B captured on Protein A chip, nectin-4-ECD as analyte, single-cycle kinetics, 1:1 fit, 37° C; 37° C., cynomolgus nectin-4-ECD"}, "hFcγIa [9]": {"molecular_target": "T5, hFcγIa", "assay": "SPR (Biacore 8K), 25° C, ADC captured on nectin-4-coated chip, receptor ECD as analyte, single-cycle kinetics, 1:1 fit", "description": "as §7"}, "hFcγIIa-H131 [10]": {"molecular_target": "T3, hFcγIIa-H131", "assay": "SPR (Biacore 8K), 25° C, ADC captured on nectin-4-coated chip, receptor ECD as analyte, steady-state analysis", "description": "as §7"}, "hFcγIIa-R131 [11]": {"molecular_target": "T4, hFcγIIa-R131", "assay": "SPR (Biacore 8K), 25° C, ADC captured on nectin-4-coated chip, receptor ECD as analyte, steady-state analysis", "description": "as §7"}, "hFcRn ECD protein [12]": {"molecular_target": "T1, hFcRn ECD protein", "assay": "SPR (Biacore 8K), 25° C, PBS pH 5.8, ADC captured on nectin-4-coated chip, hFcRn ECD as analyte, steady-state analysis", "method": "as §1, §2, §3"}, "[13]": {"molecular_target": "T2, human Nectin-4 extracellular domain …", "assay": "SPR, capture on chip with immobilized human nectin-4 ECD (FcγR runs)"}}, "note": "Substitutions are numbered along the chain they refer to.", "data": [{"binder": "B1", "values": [{"measurement": "Kd", "setting": "hFcRn ECD protein [1]", "value": 767, "unit": "nM"}, {"measurement": "Kd", "setting": "[2]", "value": "~36.3", "unit": "nM"}, {"measurement": "Kd", "setting": "hFcγIIa-H131 [3]", "value": 772, "unit": "nM"}, {"measurement": "Kd", "setting": "hFcγIIa-R131 [4]", "value": 783, "unit": "nM"}, {"measurement": "Kd", "setting": "hFcγIa [5]", "value": 0.056, "unit": "nM"}, {"measurement": "Kd", "setting": "[6]", "value": "~22.6", "unit": "nM"}, {"measurement": "Kd", "setting": "[7]", "value": "~14.5", "unit": "nM"}, {"measurement": "Kd", "setting": "[8]", "value": "~50.7", "unit": "nM"}]}, {"binder": "B2", "values": [{"measurement": "Kd", "setting": "hFcγIa [9]", "value": 0.091, "unit": "nM"}, {"measurement": "Kd", "setting": "hFcγIIa-H131 [10]", "value": 921, "unit": "nM"}, {"measurement": "Kd", "setting": "hFcγIIa-R131 [11]", "value": 846, "unit": "nM"}, {"measurement": "Kd", "setting": "hFcRn ECD protein [12]", "value": 812, "unit": "nM"}, {"measurement": "binding result", "setting": "[13]", "value": "binds"}]}]}
